Assay results as given in patent US20040161448.

Assays:
[1] = biological target: T1, soybean Bowman-Birk Inhibitor (UniProt P01055)
T1 sequence: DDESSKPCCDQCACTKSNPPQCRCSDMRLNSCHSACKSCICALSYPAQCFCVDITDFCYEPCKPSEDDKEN

[2] = biological target: T2, Soybean Kunitz Trypsin Inhibitor (UniProt P01070)
T2 sequence: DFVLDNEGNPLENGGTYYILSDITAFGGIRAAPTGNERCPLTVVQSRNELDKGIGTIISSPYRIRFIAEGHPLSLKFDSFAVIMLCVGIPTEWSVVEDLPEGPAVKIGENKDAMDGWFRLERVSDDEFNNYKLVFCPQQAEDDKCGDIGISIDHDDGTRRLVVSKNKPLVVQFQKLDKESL

soybean agglutinin (SBA) = soybean agglutinin (SBA) (UniProt P05046)
Chain of soybean agglutinin (SBA) (P05046 33-285): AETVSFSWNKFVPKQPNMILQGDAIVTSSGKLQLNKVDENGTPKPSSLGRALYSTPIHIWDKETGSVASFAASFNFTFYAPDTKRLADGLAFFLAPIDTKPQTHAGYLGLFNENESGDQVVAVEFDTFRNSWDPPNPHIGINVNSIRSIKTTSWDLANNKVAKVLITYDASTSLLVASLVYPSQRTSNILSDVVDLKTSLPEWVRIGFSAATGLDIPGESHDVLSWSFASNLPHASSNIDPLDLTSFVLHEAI

Substance: protease derived from Bacillus sp. NCIMB 40484
- % of anti-nutritional factor degraded [1]: 41%
- % of anti-nutritional factor degraded [2]: 100%
- % of anti-nutritional factor degraded (soybean agglutinin (SBA)): 21%
